We go through 13 substances from publication PMC10246534.

Experiment in all cases: SPR; Biacore T200; […]; HBS-EP, 25 °C; 1:1 binding model
On the technique in general: SPR reads the build-up and loss of mass on a sensor chip optically.

For experiment [1], the target named is sotrovimab.
Experiment [2] addresses imdevimab (human).
Experiment [3] deals with casirivimab (human).

By Kd is commonly meant the free concentration of one partner at which half of the binding sites on the other are occupied at equilibrium, for simple one-to-one binding. Low values mean higher affinity, high ones lower affinity.

Chain of imdevimab (human) (heavy, as listed by the source, chain 1 of 2): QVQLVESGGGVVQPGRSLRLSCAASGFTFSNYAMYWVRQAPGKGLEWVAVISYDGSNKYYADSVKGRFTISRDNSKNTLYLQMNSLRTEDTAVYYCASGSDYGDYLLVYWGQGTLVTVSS
Chain of imdevimab (human) (light, as listed by the source, chain 2 of 2): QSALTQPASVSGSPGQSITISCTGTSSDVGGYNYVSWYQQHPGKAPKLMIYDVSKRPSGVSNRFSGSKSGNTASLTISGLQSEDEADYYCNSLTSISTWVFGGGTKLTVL
Chain of casirivimab (human) (heavy, as listed by the source, chain 1 of 2): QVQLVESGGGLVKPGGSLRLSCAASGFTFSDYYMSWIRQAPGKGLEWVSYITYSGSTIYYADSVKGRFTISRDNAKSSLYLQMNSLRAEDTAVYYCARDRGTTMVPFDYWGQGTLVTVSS
Chain of casirivimab (human) (light, as listed by the source, chain 2 of 2): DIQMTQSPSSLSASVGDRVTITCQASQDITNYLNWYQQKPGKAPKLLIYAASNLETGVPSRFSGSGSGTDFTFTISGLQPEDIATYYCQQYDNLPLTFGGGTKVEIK

“BA.1 RBD + E340A (from UniProt P0DTC2) (domain or fragment)”: the Kd in experiment [1] is 3420 nM.

For the substance “Delta RBD + Y453F (from UniProt P0DTC2) (domain or fragment)”, the Kd is 9.8 nM in experiment [2] and 67 nM in experiment [3].

Turning to “Delta RBD + L455S (from UniProt P0DTC2) (domain or fragment)”, in experiment [2], the Kd came out at 9.1 nM.

“BA.1 RBD + E340K (from UniProt P0DTC2) (domain or fragment)” showed a Kd in experiment [1] of 3440 nM.

On to “Delta RBD + E406Q (from UniProt P0DTC2) (domain or fragment)”, for which the Kd in experiment [2] amounted to 8.9 nM.

Regarding “Delta RBD + G446V (from UniProt P0DTC2) (domain or fragment)”, in experiment [3], the equilibrium dissociation constant (Kd) was found to be 0.64 nM.

The substance “BA.1 RBD + E340D (from UniProt P0DTC2) (domain or fragment)” had a Kd in experiment [1] of 764 nM.

Substance “BA.1 RBD + P337R (from UniProt P0DTC2) (domain or fragment)” returned a dissociation constant Kd in experiment [1] of 753 nM.

With “Delta RBD + G446S (from UniProt P0DTC2) (domain or fragment)”, the Kd in experiment [2] came to 734 nM; in experiment [3], 0.56 nM.

With “Delta RBD + G446V + L455F (from UniProt P0DTC2) (domain or fragment)”, the dissociation constant Kd in experiment [3] was determined as 69 nM.

As to “BA.1 RBD + E340V (from UniProt P0DTC2) (domain or fragment)”, in experiment [1], the dissociation constant (Kd) came out at 345 nM.

“BA.1 RBD + P337S (from UniProt P0DTC2) (domain or fragment)” had a Kd in experiment [1] of 332 nM.

In turn, “Delta RBD + E406D (from UniProt P0DTC2) (domain or fragment)” came in with a Kd in experiment [3] of 7.1 nM.
